Laboratory results published in patent US20260098102A1 (NATIONAL UNIVERSITY CORPORATION KOBE UNIVERSITY, published 2026).
Where a chain is given by its changes, count along the chain named.

T1: mouse SIRPA_NOD (mouse (NOD), UniProt P97797 32-513)
T1 construct: FLAG-tagged (pFLAG V5-DEST), on 293α cells; also called NOD SCID
T1 chain: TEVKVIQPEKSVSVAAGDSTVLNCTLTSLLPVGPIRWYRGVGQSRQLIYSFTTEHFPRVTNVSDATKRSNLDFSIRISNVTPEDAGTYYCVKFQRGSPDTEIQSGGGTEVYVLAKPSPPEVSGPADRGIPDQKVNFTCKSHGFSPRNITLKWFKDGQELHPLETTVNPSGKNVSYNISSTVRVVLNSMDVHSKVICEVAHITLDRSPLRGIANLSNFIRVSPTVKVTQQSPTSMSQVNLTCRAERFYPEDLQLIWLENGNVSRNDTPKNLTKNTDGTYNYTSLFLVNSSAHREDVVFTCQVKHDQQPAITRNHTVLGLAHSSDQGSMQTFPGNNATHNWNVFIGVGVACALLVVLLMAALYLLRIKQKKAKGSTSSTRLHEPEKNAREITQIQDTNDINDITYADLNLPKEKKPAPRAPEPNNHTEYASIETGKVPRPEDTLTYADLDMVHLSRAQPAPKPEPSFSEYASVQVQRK

B1: human chimeric anti-SIRPA antibody cD13 (antibody, human IgG4 S228P, kappa, F234A L235A, V domains shown)
VH: EVQLVESGGGLVQPGRSLKLSCLASGFTFSDYGMIWVRQAPGKGLEWVASISSSSSYIYYADTVKGRFTISRENAKNTLFLHMTSLRSEDTALYYCARRYYGFNYPFDYWGQGVMVTVSS
VL: DTVLTQSPALAVSLGQRVTISCGASKSVRTYMHWYQQKSGQQPKLLIYSASNLEAGVPSRFSGSGSGTDFTLTIDPVEADDIANYYCQQSNEPPYTFGAGTKLELKR
notes: Human IgG4proFALA heavy chain, human kappa light chain; also called cD13 (IgG4pf); human chimeric antibody D13
B2: humanized anti-SIRPA antibody hD13_H1L3 (antibody, human IgG4 S228P, kappa, F234A L235A, V domains shown)
VH: QVQLVESGGGVVQPGRSLRLSCAASGFTFSDYGMIWVRQAPGKGLEWVASISSSSSYIYYADSVKGRFTISRDNSKNRLYLQMNSLRAEDTAVYYCARRYYGFNYPFDYWGQGTMVTVSS
VL: DTQLTQSPSSLSASVGQRVTITCGASKSVRTYMHWYQQKPGKQPKLLIYSASNLEAGVPSRFSGSGSGTDFTLTISSLQPEDFATYYCQQSNEPPYTFGQGTKLEIKR
notes: hH1 heavy chain (IgG4proFALA) and hL3 kappa light chain; also called hD13_HIL3; HIL3 antibody
B3: humanized anti-SIRPA antibody hD13_H2L3 (antibody, human IgG4 S228P, kappa, F234A L235A, V domains shown)
VH: B2 VH with Q1E, R78T
VL: B2 VL
notes: hH2 heavy chain (IgG4proFALA) and hL3 kappa light chain; also called H2L3 antibody
B4: humanized anti-SIRPA antibody hD13_H1L4 (antibody, human IgG4 S228P, kappa, F234A L235A, V domains shown)
VH: B2 VH
VL: DTVLTQSPDSLAVSLGQRATINCGASKSVRTYMHWYQQKPGQQPKLLIYSASNLEAGVPSRFSGSGSGTDFTLTISSLQAEDVAVYYCQQSNEPPYTFGQGTKVEIKR
notes: hH1 heavy chain (IgG4proFALA) and hL4 kappa light chain; also called hD13_HIL4; hD13_HIL4h
B5: humanized anti-SIRPA antibody hD13_H2L2 (antibody, human IgG4 S228P, kappa, F234A L235A, V domains shown)
VH: B2 VH with Q1E, R78T
VL: B2 VL with D1A, T2I, Q43A
notes: hH2 heavy chain (IgG4proFALA) and hL2 kappa light chain; also called H2L2 antibody

Experiments:
[1] = biological target: T2, SIRPA_V1_IgV (human, UniProt P78324 31-149); experiment: SPR Biacore T200, antibody captured, SIRPA_V1_IgV as analyte, 1:1 model
T2 construct: Secreted recombinant protein from FreeStyle 293F cells
Procedure: The dissociation constants of the cD13, cF44, and cF63 prepared in Example 4 against the human SIRPA_V1_IgV prepared in Example 1 were determined by a capture method comprising capturing a human chimeric antibody as a ligand and measuring an antigen as an analyte, using Biacore T200 (GE Healthcare Bioscience Corp.). HBS-EP+ (GE Healthcare Bioscience Corp.) was used as a running buffer, and CM5 (GE Healthcare Bioscience Corp.) was used as a sensor chip. In an amount of 1 μg/mL human chimeric antibody was added onto a chip at a rate of 10 μL/min for 60 seconds, a serially diluted solution of human SIRPA protein as an antigen (0.5 to 8 μg/mL) was added at a flow rate of 30 μL/min for 120 seconds, and the dissociation phase continued to be monitored for 600 seconds. As a regenerant, 3 M magnesium chloride (GE Healthcare Bioscience Corp.) was added at a flow rate of 20 μL/min for 30 seconds. For data analysis, the binding rate constant (ka), dissociation rate constant (kd), and dissociation constant (KD; KD=kd/ka) were calculated using a 1:1 binding model.

[2] = biological target: T3, human SIRPA_V1 protein (human, UniProt P78324 31-504); experiment: cell-based ELISA on 293α cells expressing FLAG-tagged SIRPA_V1; Abs 490 normalized to FLAG tag [i]
T3 construct: Expressed on 293α cells from pcDNA3.2 V5-DEST or pFLAG V5-DEST (FLAG-tagged) vectors; also called human SIRPA Variant 1; hSIRPA V1
Procedure: (§1) The 293a cells, described in Example 1)-6, were prepared at 5× 10⁵ cells/mL in a 10% FBS-containing DMEM medium. pFLAG V5-DEST-SIRPA_V1-V10, pFLAG V5-DEST-monkey SIRPA, pFLAG V5-DEST-mouse SIRPA, or pFLAG V5-DEST was introduced into the cells using Lipofectamine LTX (Invitrogen), and 100 μL each was aliquoted to a 96-well plate (Corning Incorporated) and cultured overnight in a 10% FBS-containing DMEM medium at 37° C. under a 5% CO₂ condition. The obtained introduced cells were used for cell-based ELISA in a state that they adhered. After the culture supernatant was removed, 50 μL per well of hD13_HIL3, hD13_HIL4h, hD13_H2L2, hD13_H2L3, or cD13 prepared in Examples 6 and 7 or a control antibody was added to each of various SIRPA genes-introduced cells at a final concentration of 0 to 10,000 ng/ml, and the mixture was allowed to stand at 4° C. for one hour. Thereafter, binding to human SIRPA was evaluated in the same manner as in Example 5-1.

[3] = biological target: T1, mouse SIRPA_NOD; experiment: cell-based ELISA on 293α cells expressing FLAG-tagged mouse SIRPA (NOD); Abs 490 normalized to FLAG tag [i]
Procedure: as §1

[4] = biological target: T4, human SIRPG (human, UniProt Q9P1W8 29-387); experiment: flow cytometry on CHO-K1 cells expressing FLAG-tagged human SIRPG; PE anti-human IgG; MFI standardized to secondary antibody alone
T4 construct: whole, on cells; FLAG-tagged (pFLAG V5-DEST), on CHO-K1 cells; also called SIRPγ; signal regulatory protein γ
Procedure: SIRPβ1 (signal regulatory protein β1: the amino acid sequence thereof is published as RefSeq accession number NP_006056) and SIRPγ (signal regulatory protein γ: the amino acid sequence thereof is published as RefSeq accession number NP_061026) are molecules belonging to the SIRPA family. In the present invention, “SIRPα” may be referred to as “SIRPA,” “SIRPβ1” may be referred to as […] and “SIRPγ” may be referred to as “SIRPG.” CHO-K1 cells were prepared in a 10% FBS-containing Ham's F-12K medium at 3.3×10⁵ cells/mL and cultured overnight at 37° C. under a 5% CO₂ condition. pFLAG V5-DEST-human SIRPβ, pFLAG V5-DEST-human SIRPG, or pFLAG V5-DEST was introduced into the cells using Lipofectamine LTX (Invitrogen), and cells were cultured in a 10% FBS-containing Ham's F-12K medium at 37° C. under a 5% CO₂ condition for 24 hours. The obtained introduced cells were collected and seeded on a 96-well plate. After the culture supernatant was removed, 100 μL per well of various anti-human SIRPA antibodies or various control human IgG was added to each of various gene introduced cells at a final concentration of 0 to 10,000 ng/mL, and the mixture was allowed to stand at 4° C. for 25 minutes. After the mixture was centrifuged, the supernatant was removed, and cells were washed twice with 5% FBS-containing PBS. […]
After the mixture was centrifuged, and the supernatant was removed, cells were suspended in 100 μL per well of 1× BD Stabilizing Fixative (Becton Dickinson), and the cell count was measured by flow cytometry (FACS Canto II: Becton Dickinson). […] Cells were characterized by detecting forward scattered (FSC) light and side-scattered (SSC) light, and then the mean fluorescence intensity of PE was calculated. Binding of various antibodies to the family molecules was calculated by standardizing the fluorescence intensity using the mean fluorescence intensity of a sample in which the secondary antibody alone was allowed to react.

T3 sequence (P78324 31-504 limits assumed): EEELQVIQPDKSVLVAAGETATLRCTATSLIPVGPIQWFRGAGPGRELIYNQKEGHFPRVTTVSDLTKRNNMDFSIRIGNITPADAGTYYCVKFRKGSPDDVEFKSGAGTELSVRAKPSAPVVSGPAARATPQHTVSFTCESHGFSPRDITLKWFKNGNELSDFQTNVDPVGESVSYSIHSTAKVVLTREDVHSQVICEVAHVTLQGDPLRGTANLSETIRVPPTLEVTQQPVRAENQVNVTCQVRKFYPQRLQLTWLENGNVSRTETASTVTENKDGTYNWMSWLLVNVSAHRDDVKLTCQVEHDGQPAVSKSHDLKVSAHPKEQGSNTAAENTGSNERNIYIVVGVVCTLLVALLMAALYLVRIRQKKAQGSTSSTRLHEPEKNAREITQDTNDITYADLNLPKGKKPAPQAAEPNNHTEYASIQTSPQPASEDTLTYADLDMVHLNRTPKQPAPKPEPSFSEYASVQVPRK
T4 sequence (Q9P1W8 29-387): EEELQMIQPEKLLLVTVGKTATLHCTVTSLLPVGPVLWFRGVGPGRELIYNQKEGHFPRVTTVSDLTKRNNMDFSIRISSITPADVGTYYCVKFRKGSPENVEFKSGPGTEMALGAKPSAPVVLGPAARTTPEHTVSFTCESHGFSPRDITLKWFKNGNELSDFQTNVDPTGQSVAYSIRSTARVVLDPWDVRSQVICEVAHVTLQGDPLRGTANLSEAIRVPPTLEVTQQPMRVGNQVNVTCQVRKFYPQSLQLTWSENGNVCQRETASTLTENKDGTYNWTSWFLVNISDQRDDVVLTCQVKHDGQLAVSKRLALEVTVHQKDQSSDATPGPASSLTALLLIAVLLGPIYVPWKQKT
T2 sequence (P78324 other isoform, or with tags, fused parts or gaps limits assumed): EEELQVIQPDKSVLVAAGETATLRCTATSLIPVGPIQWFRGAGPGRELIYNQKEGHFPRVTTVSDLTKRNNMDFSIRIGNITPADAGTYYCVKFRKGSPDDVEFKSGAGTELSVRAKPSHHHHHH

Binder | Kd [1] [pM] | EC50 (read off the curve) [2] [µg/mL] | binding result [3] | EC50 (read off the curve) [4] [µg/mL]
B1 | 81.1 | ~0.05 | no binding (tested: 10000 ng/mL) | –
B2 | – | ~0.04 | no binding (tested: 10000 ng/mL) | ~0.03
B3 | – | ~0.05 | no binding (tested: 10000 ng/mL) | –
B4 | – | ~0.04 | no binding (tested: 10000 ng/mL) | –
B5 | – | ~0.04 | no binding (tested: 10000 ng/mL) | –
